Reference: patent US20240425830, “ENGINEERED CAS12I NUCLEASE, EFFECTOR PROTEIN AND USE THEREOF” (Institute of Zoology, Chinese Academy of Sciences, published 2024)
Residue numbers refer to the chain shown, from its start.

T1: Cas12i2 E563R (E563R)
T1 chain: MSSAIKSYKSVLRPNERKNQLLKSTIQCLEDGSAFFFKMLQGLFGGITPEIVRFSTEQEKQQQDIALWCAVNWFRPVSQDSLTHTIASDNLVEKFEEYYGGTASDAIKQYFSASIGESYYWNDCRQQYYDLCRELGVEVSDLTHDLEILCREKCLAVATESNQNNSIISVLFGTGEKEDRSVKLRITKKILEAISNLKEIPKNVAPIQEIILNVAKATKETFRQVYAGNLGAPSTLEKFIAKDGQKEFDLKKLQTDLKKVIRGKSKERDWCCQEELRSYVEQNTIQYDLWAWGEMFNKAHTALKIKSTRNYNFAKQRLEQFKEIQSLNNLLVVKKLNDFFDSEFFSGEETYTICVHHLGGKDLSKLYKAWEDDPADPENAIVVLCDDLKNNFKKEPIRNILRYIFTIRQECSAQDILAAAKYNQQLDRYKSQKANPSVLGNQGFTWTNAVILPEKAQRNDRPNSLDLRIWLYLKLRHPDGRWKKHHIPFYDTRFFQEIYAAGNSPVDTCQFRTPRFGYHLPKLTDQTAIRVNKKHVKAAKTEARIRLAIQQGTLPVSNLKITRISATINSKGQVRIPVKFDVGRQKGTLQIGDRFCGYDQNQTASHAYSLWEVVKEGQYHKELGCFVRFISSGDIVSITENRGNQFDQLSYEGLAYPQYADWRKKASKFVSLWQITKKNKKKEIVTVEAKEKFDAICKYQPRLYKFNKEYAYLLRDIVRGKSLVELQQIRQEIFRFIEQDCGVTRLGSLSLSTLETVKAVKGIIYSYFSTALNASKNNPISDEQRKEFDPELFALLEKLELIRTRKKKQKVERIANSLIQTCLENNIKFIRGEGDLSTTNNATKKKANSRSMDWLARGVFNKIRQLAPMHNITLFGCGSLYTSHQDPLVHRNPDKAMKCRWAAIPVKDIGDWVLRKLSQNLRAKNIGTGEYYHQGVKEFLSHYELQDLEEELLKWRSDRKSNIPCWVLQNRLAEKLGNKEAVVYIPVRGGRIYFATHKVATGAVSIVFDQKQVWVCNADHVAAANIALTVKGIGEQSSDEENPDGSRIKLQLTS

T2: Cas12i2 wild-type
T2 chain: T1 chain with R563E

B1: crRNA RNF2-7 ; RNF2-7 target (ssRNA ; dsDNA)
RNA: AGAAAUCCGUCUUUCAUUGACGGUUCAACAUAUCCAAACAAAU
DNA 1: TTCAACATATCCAAACAAAT
DNA 2: ATTTGTTTGGATATGTTGAA
B2: crRNA CCR5-3 ; CCR5-3 target (ssRNA ; dsDNA)
RNA: AGAAAUCCGUCUUUCAUUGACGGAGGCCAAAGAAUUCCUGGAA
DNA 1: AGGCCAAAGAATTCCTGGAA
DNA 2: TTCCAGGAATTCTTTGGCCT

Assays:
Cas12i2 E563R = target: T1, Cas12i2 E563R; test: cell_activity; HEK293T
Procedure: (§1) HEK293T cells were cultured in DMEM (Gibco) comprising 1% penicillin-streptomycin (Gibco) and 10% fetal calf serum (Gibco). Cells were seeded in 24-well cell culture dishes (Corning) for 16 hours until cell density reached 70%. By using Lipofectamine 3000 (Invitrogen), 600 ng of plasmid encoding Cas12i2 protein and 300 ng of plasmid encoding crRNA were transfected into each 24-well cell culture dish. After approximately 68 hours of transfection, HEK293T cells to be subjected to fluorescence-activated cell sorting (FACS) were digested with trypsin-EDTA (0.05%) (Gibco). Cell sorting was performed using MoFlo XDP (Beckman Coulter) with GFP channel.
(§2) FACS-sorted GFP-positive HEK293T cells were lysed with buffer L and incubated at 55° C. for 3 h and then at 95° C. for 10 min. PCR amplification of dsDNA fragments comprising target sites in different genomic sites was performed using corresponding primers. For targeted deep sequencing, cell lysate was directly used as a template to directly amplify the target site through barcoded PCR. PCR products were purified and pooled into several libraries for high-throughput sequencing. The frequency (%) of indels was analyzed using CRISPResso2 software by calculating the ratio of reads comprising indels. In this application, the index of indel frequency (%) was uniformly used to compare and analyze gene editing efficiency. Reads with less than 0.05% of complete reads are discarded.

Cas12i2 wild-type = target: T2, Cas12i2 wild-type; test: cell_activity; HEK293T
Procedure: as §1, §2

| Binder | activity (Cas12i2 E563R) | activity (Cas12i2 wild-type) |
| --- | --- | --- |
| B1 | 68.3 % indel | 11.7 % indel |
| B2 | 55.5 % indel | 10.4 % indel |
